{"source": "paper PMC12312913", "test_in_all_cases": "BLI; Octet R2; His6-tagged OMP-TF bound to rabbit anti-His mAb and tethered to ProA biosensors; analyte: crude cell lysate of J-Flag at different concentrations; PBS with 0.1% BSA and 0.01% Tween-20; double reference subtraction (buffer and TF sensor); 1:1 binding model", "key": {"[1]": {"target": "BtuB fused to TF and His tag (S. Typhimurium) (UniProt P37409)", "sequence (P37409 21-614)": "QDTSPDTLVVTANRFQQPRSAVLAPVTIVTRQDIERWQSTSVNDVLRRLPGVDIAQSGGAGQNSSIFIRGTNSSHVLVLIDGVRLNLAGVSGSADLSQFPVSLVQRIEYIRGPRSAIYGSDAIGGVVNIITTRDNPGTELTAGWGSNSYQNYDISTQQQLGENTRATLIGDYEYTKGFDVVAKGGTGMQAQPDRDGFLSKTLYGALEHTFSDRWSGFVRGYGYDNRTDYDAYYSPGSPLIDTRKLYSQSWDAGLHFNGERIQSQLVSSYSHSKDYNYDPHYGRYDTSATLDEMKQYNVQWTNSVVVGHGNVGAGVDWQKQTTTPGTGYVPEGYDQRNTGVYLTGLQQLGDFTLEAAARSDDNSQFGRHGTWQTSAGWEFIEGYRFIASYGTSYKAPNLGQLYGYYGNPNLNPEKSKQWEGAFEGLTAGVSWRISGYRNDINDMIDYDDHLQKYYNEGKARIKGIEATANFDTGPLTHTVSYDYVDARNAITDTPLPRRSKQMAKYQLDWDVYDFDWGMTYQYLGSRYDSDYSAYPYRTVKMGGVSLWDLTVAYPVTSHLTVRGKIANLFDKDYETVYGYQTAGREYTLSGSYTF"}, "[2]": {"target": "OmpX fused to TF and His tag (S. Typhimurium)"}, "[3]": {"target": "OmpC fused to TF and His tag (S. Typhimurium) (UniProt P0A263)", "sequence (P0A263 22-378)": "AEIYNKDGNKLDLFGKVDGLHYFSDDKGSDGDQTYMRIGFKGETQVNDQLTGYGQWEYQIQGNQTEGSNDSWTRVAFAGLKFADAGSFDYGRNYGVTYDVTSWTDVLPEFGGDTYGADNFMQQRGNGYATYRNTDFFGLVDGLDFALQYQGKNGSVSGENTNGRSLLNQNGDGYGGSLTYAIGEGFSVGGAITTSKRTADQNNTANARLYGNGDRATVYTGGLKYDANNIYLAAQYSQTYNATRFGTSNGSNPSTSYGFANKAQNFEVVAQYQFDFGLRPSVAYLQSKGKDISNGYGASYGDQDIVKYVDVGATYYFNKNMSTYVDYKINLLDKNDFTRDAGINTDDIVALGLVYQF"}}, "note": "pKd: −log10 of the molar value.", "data": [{"substance": "Gifsy-1 central tail tip J protein with Flag tag (natural protein)", "values": [{"measurement": "pKd", "setting": "[1]", "result": 11.22}, {"measurement": "pKd", "setting": "[2]", "result": 7.15}, {"measurement": "pKd", "setting": "[3]", "result": 9.47}]}]}
